A short description of data set [1]: Release test of free diclofenac, felbinac, ketoprofen or naproxen in sodium phosphate buffer (Example 23). The format is physicochemical. As to the method:
(§1) (set temperature of air conditioner). After confirming that no gel was formed, this solution was dispensed. Immediately after the dissolution, the amount of free diclofenac present in each solution was measured by LC-MS/MS as an initial state (day 0 of storage). Also, the other dispensed solutions were incubated at 37° C. for 1, 3, and 7 days, and then the amount of free diclofenac was measured. […] The MS conditions are as follows. • Ionization mode: ESI-negative • Ion source temperature: 300 degrees • Capillary voltage: -4000 V

Data set [2] can be described thus: Release test of free diclofenac from conjugates in 20 mM sodium phosphate buffer, 37°C (Example 11). The format is physicochemical. The following applies: for Release Rate in Release Test at pH 5.3: pH 5.3, 37°C; for Release Rate in Release Test at pH 5.3 / Release Rate in Release Test at pH 7.0: free diclofenac; for Release Rate in Release Test at pH 7.0: pH 7.0, 37°C. How it is done:
as §1

The mark [3] stands for this setting: pH 5.3, day 1, free drug (diclofenac, felbinac, ketoprofen or naproxen).
Where [4] appears, read: pH 5.3, day 3, free drug (diclofenac, felbinac, ketoprofen or naproxen).
Setting [5] is: pH 5.3, day 7, free drug (diclofenac, felbinac, ketoprofen or naproxen).
The mark [6] stands for this setting: pH 7.0, day 1, free drug (diclofenac, felbinac, ketoprofen or naproxen).
Where [7] appears, read: pH 7.0, day 3, free drug (diclofenac, felbinac, ketoprofen or naproxen).
Setting [8] is: pH 7.0, day 7, free drug (diclofenac, felbinac, ketoprofen or naproxen).

As to “Diclofenac-(2-Amino-N-(2-Hydroxyethyl)Acetamide)-Alginic Acid Derivative [Compound 53d]”, the “Release Rate in Release Test at pH 5.3” value stood at 0.1% in data set [1] (setting [3]), 0.5% in data set [1] (setting [4]) and 0.6% in data set [1] (setting [5]). The figures for the “Release Rate in Release Test at pH 7.0” value in data set [1] (setting [6]), in data set [1] (setting [7]) and in data set [1] (setting [8]) were 0.7%, 3.0% and 9.3%, respectively.
On to “Felbinac-(2-Amino-N-(2-Hydroxyethyl)Acetamide)-Alginic Acid Derivative [Compound 84]”, for which the “Release Rate in Release Test at pH 5.3” value in data set [1] (setting [3]) is on record as 0.2%; in data set [1] (setting [4]), 0.3%; in data set [1] (setting [5]), 0.5%. The “Release Rate in Release Test at pH 7.0” value worked out at 0.9% in data set [1] (setting [6]), 3.3% in data set [1] (setting [7]) and 7.3% in data set [1] (setting [8]).
In the case of “Diclofenac-(2-Aminoethanol)-Alginic Acid Derivative [Compound 5a]”, the “Release Rate in Release Test at pH 5.3” value in data set [2] (Day 1, 0.1% w/w conjugate) was determined as 0.0%; in data set [2] (Day 3, 0.1% w/w conjugate) it was 0.1%; in data set [2] (Day 7, 0.1% w/w conjugate), 0.2%. Further, the “Release Rate in Release Test at pH 7.0” value was 0.2% in data set [2] (Day 1, 0.1% w/w conjugate); 2.3% in data set [2] (Day 3, 0.1% w/w conjugate); 4.1% in data set [2] (Day 7, 0.1% w/w conjugate).
For the substance “Diclofenac-(2-Aminoethanol)-Alginic Acid Derivative [Compound 5b]”, the “Release Rate in Release Test at pH 5.3” value in data set [2] (Day 1, 0.1% w/w conjugate) worked out at 0.0%; in data set [2] (Day 3, 0.1% w/w conjugate), 0.0%; in data set [2] (Day 7, 0.1% w/w conjugate), 0.3%. In addition, the “Release behaviour in the release test at pH 7.0 (in words)” value (“Release behaviour in the release test” for short) in data set [2] was “stably released”. The “Release Rate in Release Test at pH 7.0” value was found to be 0.1% in data set [2] (Day 1, 0.1% w/w conjugate); 2.1% in data set [2] (Day 3, 0.1% w/w conjugate); 5.0% in data set [2] (Day 7, 0.1% w/w conjugate).
Take “Diclofenac-(2-Aminoethoxyethanol)-Alginic Acid Derivative [Compound 14b]”: the “Release Rate in Release Test at pH 5.3” value came out at 0.1% in data set [1] (setting [3]), 0.2% in data set [1] (setting [4]) and 0.5% in data set [1] (setting [5]).
“Diclofenac-(2-Amino-1-(4-Hydroxypiperidin-1-Yl)Ethan-1-One)-Alginic Acid Derivative [Compound 63b]”: the results for the “Release Rate in Release Test at pH 5.3” value in data set [1] (setting [3]), in data set [1] (setting [4]) and in data set [1] (setting [5]) were 0.1%, 0.1% and 0.2%, respectively. Besides, the “Release Rate in Release Test at pH 7.0” value in data set [1] (setting [6]) is on record as 0.7%; in data set [1] (setting [7]) it was 1.9%; in data set [1] (setting [8]), 2.5%.
As to “Diclofenac-(N-(Aminoethyl)-2-Hydroxypropanamide)-Alginic Acid Derivative [Compound 47]”, the “Release Rate in Release Test at pH 5.3” value in data set [2] (Day 1, 0.1% w/w conjugate) came to 0.0%; in data set [2] (Day 3, 0.1% w/w conjugate), 0.1%; in data set [2] (Day 7, 0.1% w/w conjugate), 0.7%. Moreover, the “Release behaviour in the release test” value in data set [2] is on record as “stably released”. Besides, the “Release Rate in Release Test at pH 7.0” value in data set [2] (Day 1, 0.1% w/w conjugate) is 0.8%; in data set [2] (Day 3, 0.1% w/w conjugate), 6.1%; in data set [2] (Day 7, 0.1% w/w conjugate) it was 10.9%.
Regarding “Diclofenac-(2-Aminoethanol)-Alginic Acid Derivative [Compound 5d]”, the “Release Rate in Release Test at pH 5.3” value is 0.0% in data set [2] (Day 1, 0.1% w/w conjugate); 0.1% in data set [2] (Day 3, 0.1% w/w conjugate); 0.4% in data set [2] (Day 7, 0.1% w/w conjugate). Moreover, the “Release behaviour in the release test” value in data set [2] is “stably released”. Also, the “Release Rate in Release Test at pH 7.0” value came out at 0.2% in data set [2] (Day 1, 0.1% w/w conjugate); 2.4% in data set [2] (Day 3, 0.1% w/w conjugate); 5.1% in data set [2] (Day 7, 0.1% w/w conjugate).
For “Diclofenac-(2-Aminoethanol)-Alginic Acid Derivative [Compound 5c]”, the “Release Rate in Release Test at pH 5.3” value in data set [2] (Day 1, 0.1% w/w conjugate) was 0.0%; in data set [2] (Day 3, 0.1% w/w conjugate), 0.1%; in data set [2] (Day 7, 0.1% w/w conjugate), 0.4%. Also, in data set [2], the “Release behaviour in the release test” value is “stably released”. For the same substance, the “Release Rate in Release Test at pH 7.0” value is given as 0.3% in data set [2] (Day 1, 0.1% w/w conjugate); 2.5% in data set [2] (Day 3, 0.1% w/w conjugate); 5.5% in data set [2] (Day 7, 0.1% w/w conjugate).
Turning to “Diclofenac-(2-Amino-N-(6-Hydroxyhexyl)Acetamide)-Alginic Acid Derivative [Compound 68]”, the “Release Rate in Release Test at pH 5.3” value was determined as 0.0% in data set [1] (setting [3]), 0.2% in data set [1] (setting [4]) and 0.3% in data set [1] (setting [5]). Also, the “Release Rate in Release Test at pH 7.0” value is given as 0.3% in data set [1] (setting [6]), 0.9% in data set [1] (setting [7]) and 2.1% in data set [1] (setting [8]).
Turning to “Diclofenac-(2-Amino-1-(4-(Hydroxymethyl)Piperidin-1-Yl)Ethan-1-One)-Alginic Acid Derivative [Compound 58]”, the entries for the “Release Rate in Release Test at pH 5.3” value in data set [1] (setting [3]), in data set [1] (setting [4]) and in data set [1] (setting [5]) were 0.0%, 0.2% and 0.3%, respectively. For the same substance, the “Release Rate in Release Test at pH 7.0” value in data set [1] (setting [6]) was determined as 0.3%; in data set [1] (setting [7]) it was 1.3%; in data set [1] (setting [8]) it was 3.1%.
“Diclofenac-(2-Aminoethoxyethanol)-Alginic Acid Derivative [Compound 14a]”: the figures for the “Release Rate in Release Test at pH 5.3” value in data set [1] (setting [3]), in data set [1] (setting [4]) and in data set [1] (setting [5]) were 0.1%, 0.2% and 0.4%, respectively. Also, the “Release Rate in Release Test at pH 7.0” value in data set [1] (setting [6]) turned out to be 0.6%; in data set [1] (setting [7]), 1.9%; in data set [1] (setting [8]), 4.2%.
For “Diclofenac-(2-Amino-N-(2-Hydroxyethyl)Acetamide)-Alginic Acid Derivative [Compound 53c]”, the entries for the “Release Rate in Release Test at pH 5.3” value in data set [1] (setting [3]), in data set [1] (setting [4]) and in data set [1] (setting [5]) were 0.5%, 0.9% and 1.0%, respectively. The results for the “Release Rate in Release Test at pH 7.0” value in data set [1] (setting [6]), in data set [1] (setting [7]) and in data set [1] (setting [8]) were 0.9%, 2.5% and 7.4%, respectively.
On to “Diclofenac-(2-Amino-N-(2-Hydroxypropyl)Acetamide)-Alginic Acid Derivative [Compound 72b]”, for which the “Release Rate in Release Test at pH 5.3” value in data set [1] (setting [3]) is given as 0.0%; in data set [1] (setting [4]), 0.1%; in data set [1] (setting [5]) it was 0.2%. Besides, the “Release Rate in Release Test at pH 7.0” value in data set [1] (setting [6]) is 0.4%; in data set [1] (setting [7]), 1.5%; in data set [1] (setting [8]), 3.7%.
For “Diclofenac-(2-Amino-N-(1-Hydroxypropan-2-Yl)Acetamide)-Alginic Acid Derivative [Compound 80b]”, the results for the “Release Rate in Release Test at pH 5.3” value in data set [1] (setting [3]), in data set [1] (setting [4]) and in data set [1] (setting [5]) were 0.2%, 0.3% and 0.7%, respectively. The “Release Rate in Release Test at pH 7.0” value in data set [1] (setting [6]) came to 0.7%; in data set [1] (setting [7]) it was 2.3%; in data set [1] (setting [8]) it was 5.6%.
For the substance “Diclofenac-(2-Amino-N-(2-Hydroxyethyl)Acetamide)-Alginic Acid Derivative [Compound 53a]”, the “Release Rate in Release Test at pH 5.3” value in data set [1] (setting [3]) amounted to 0.1%; in data set [1] (setting [4]), 0.4%; in data set [1] (setting [5]), 0.8%. Further, the “Release Rate in Release Test at pH 7.0” value is 0.9% in data set [1] (setting [6]), 3.7% in data set [1] (setting [7]) and 10.0% in data set [1] (setting [8]).
For the substance “Diclofenac-(2-Amino-N-(3-Hydroxypropyl)Acetamide)-Alginic Acid Derivative [Compound 76b]”, the “Release Rate in Release Test at pH 5.3” value in data set [1] (setting [3]) is 0.3%; in data set [1] (setting [4]), 0.5%; in data set [1] (setting [5]), 0.6%. Also, the “Release Rate in Release Test at pH 7.0” value in data set [1] (setting [6]) was determined as 0.4%; in data set [1] (setting [7]) it was 1.4%; in data set [1] (setting [8]), 3.6%.
Turning to “Diclofenac-(2-Amino-N-(2-Hydroxypropyl)Acetamide)-Alginic Acid Derivative [Compound 72a]”, the figures for the “Release Rate in Release Test at pH 5.3” value in data set [1] (setting [3]), in data set [1] (setting [4]) and in data set [1] (setting [5]) were 0.0%, 0.1% and 0.2%, respectively. The “Release Rate in Release Test at pH 7.0” value in data set [1] (setting [6]) turned out to be 0.3%; in data set [1] (setting [7]), 1.0%; in data set [1] (setting [8]) it was 2.2%.
With “Diclofenac-(2-Amino-N-(3-Hydroxypropyl)Acetamide)-Alginic Acid Derivative [Compound 76a]”, the “Release Rate in Release Test at pH 5.3” value is given as 0.1% in data set [1] (setting [3]), 0.2% in data set [1] (setting [4]) and 0.4% in data set [1] (setting [5]). Also, the “Release Rate in Release Test at pH 7.0” value worked out at 0.5% in data set [1] (setting [6]), 1.3% in data set [1] (setting [7]) and 3.5% in data set [1] (setting [8]).
Consider “Diclofenac-(2-Amino-N-(1-Hydroxypropan-2-Yl)Acetamide)-Alginic Acid Derivative [Compound 80a]”, for which the “Release Rate in Release Test at pH 5.3” value in data set [1] (setting [3]) came to 0.2%; in data set [1] (setting [4]) it was 0.4%; in data set [1] (setting [5]), 0.6%. The “Release Rate in Release Test at pH 7.0” value was determined as 0.8% in data set [1] (setting [6]), 2.4% in data set [1] (setting [7]) and 5.3% in data set [1] (setting [8]).

The record behind these values is patent publication US20230190943A1, “ALGINIC ACID DERIVATIVE BONDED TO NONSTEROIDAL ANTI-INFLAMMATORY COMPOUND” (MOCHIDA PHARMACEUTICAL CO., LTD., priority 2018, published 2023).
